The target of test [1] is TLR5-N14VLR (zebrafish, Danio rerio | hagfish) (UniProt B3DIN1). Kind of test: fluorescence polarisation.
For test [2], the target named is drTLR5-ECD (zebrafish, Danio rerio). Briefly: fluorescence polarisation. (In fluorescence polarisation assays a small probe gives low polarisation when free and higher when bound to something large.)

Consider “CBLB502-ΔD0 (from UniProt Q06971 1-505) (ligand)”, for which the fold change in binding affinity (against CBLB502) in test [1] and in test [2] was 2 to 3 fold in each case.

The record behind these values is publication PMC3406927.
